Tests used:
[1] = biological target: CD81 MBP-LEL113-201 (maltose-binding protein linked to the CD81 large extracellular loop, residues 113 to 201), dimeric form (UniProt P60033); assay: SPR; 1:1 model for dimer/trimer, two-state model for monomer
[2] = biological target: CD81 MBP-LEL113-201 (maltose-binding protein linked to the CD81 large extracellular loop, residues 113 to 201), dimeric form (UniProt P60033); assay: SPR; 1:1 Langmuir model

Chain of UniProt P60033 (P60033 113-201 limits assumed): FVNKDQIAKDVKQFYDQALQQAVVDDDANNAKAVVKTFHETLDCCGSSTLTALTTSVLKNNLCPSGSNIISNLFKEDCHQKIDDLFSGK

Row | Substance | fold higher affinity than the monomeric protein [1] [fold] | fold higher affinity than the WT dimer [2] [fold]
1 | H77c WT E2661-his, dimer (from UniProt P27958 384-661) (ligand) | 10 | –
2 | H77c WT E2661-his, trimer (putative) (from UniProt P27958 384-661) (ligand) | 10 | –
3 | H77c ΔHVR1+2+3 E2661-his, dimer (from UniProt P27958 384-661) (ligand) | 10 | 2
4 | H77c ΔHVR1+2+3 E2661-his, trimer (putative) (from UniProt P27958 384-661) (ligand) | 10 | –

— patent US20130323282A1
